Consider 6 substances from publication PMC8034621.

For assay [1], the target named is biotinylated 4-heptad RNA polymerase II CTD peptide, Ser5 phosphorylated on all heptads.
For assay [2], the target named is biotinylated 4-heptad RNA polymerase II CTD peptide, Ser2 phosphorylated on all heptads. The assay is described as follows: pull-down on streptavidin-coupled Dynabeads, SDS-PAGE stained with Coomassie Blue, band quantification. Conditions: biotinylated peptides of four CTD heptads; triplicate; parent: est. 1.0; read off a plot.
The target in assay [3] is biotinylated 4-heptad RNA polymerase II CTD peptide, Ser5 phosphorylated on all heptads. The description is as above. Conditions: biotinylated peptides of four CTD heptads; triplicate; parent: est. 1.0; read off a plot.
Assay [4] addresses RNA polymerase II CTD CTD (UniProt P24928). Conditions: cited from earlier work.

human capping enzyme (CE/RNGTT) GTase with the disordered flanking regions (211–597), wild-type, O60942 R358A; K403A; R411A, sequence (O60942 211-597 R358A/K403A/R411A): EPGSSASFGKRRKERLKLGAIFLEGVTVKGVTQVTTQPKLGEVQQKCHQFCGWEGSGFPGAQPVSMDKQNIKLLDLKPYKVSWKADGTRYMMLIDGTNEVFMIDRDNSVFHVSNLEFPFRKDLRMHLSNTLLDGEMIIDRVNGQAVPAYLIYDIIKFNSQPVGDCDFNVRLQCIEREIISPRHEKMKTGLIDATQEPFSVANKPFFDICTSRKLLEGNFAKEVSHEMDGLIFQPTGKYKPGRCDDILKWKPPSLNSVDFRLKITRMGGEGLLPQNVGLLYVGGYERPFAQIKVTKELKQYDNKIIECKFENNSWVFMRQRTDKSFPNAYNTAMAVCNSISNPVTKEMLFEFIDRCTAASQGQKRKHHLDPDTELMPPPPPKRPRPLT
human capping enzyme (CE/RNGTT) GTase with the disordered flanking regions (211–597), wild-type, O60942 R330A; K331A; R386A, sequence (O60942 211-597 R330A/K331A/R386A): as the sequence (O60942 211-597 R358A/K403A/R411A) above, with R120A, K121A, A148R, R176A, A193K, A201R counted along it
human capping enzyme (CE/RNGTT) GTase with the disordered flanking regions (211–597), wild-type, O60942 R330A; K331A; R386A; R358A; K403A; R411A, sequence (O60942 211-597 R330A/K331A/R358A/R386A/K403A/R411A): as the sequence (O60942 211-597 R358A/K403A/R411A) above, with R120A, K121A, R176A counted along it
RNA polymerase II CTD CTD, sequence (P24928 1593-1970 A1835T): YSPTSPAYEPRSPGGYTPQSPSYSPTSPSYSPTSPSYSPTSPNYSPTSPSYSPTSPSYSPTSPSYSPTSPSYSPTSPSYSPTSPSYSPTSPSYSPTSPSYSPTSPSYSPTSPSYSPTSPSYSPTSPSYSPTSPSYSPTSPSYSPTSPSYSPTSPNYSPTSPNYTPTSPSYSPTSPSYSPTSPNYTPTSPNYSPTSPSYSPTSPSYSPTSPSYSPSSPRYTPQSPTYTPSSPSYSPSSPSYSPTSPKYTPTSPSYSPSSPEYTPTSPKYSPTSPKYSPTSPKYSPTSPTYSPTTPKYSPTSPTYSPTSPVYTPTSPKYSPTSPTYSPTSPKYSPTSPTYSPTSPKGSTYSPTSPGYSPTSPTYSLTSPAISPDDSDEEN
human capping enzyme (CE/RNGTT) GTase with the disordered flanking regions (211–597), wild-type, sequence (O60942 211-597): as the sequence (O60942 211-597 R358A/K403A/R411A) above, with A148R, A193K, A201R counted along it
mRNA capping enzyme GTase, sequence (O60942 229-597): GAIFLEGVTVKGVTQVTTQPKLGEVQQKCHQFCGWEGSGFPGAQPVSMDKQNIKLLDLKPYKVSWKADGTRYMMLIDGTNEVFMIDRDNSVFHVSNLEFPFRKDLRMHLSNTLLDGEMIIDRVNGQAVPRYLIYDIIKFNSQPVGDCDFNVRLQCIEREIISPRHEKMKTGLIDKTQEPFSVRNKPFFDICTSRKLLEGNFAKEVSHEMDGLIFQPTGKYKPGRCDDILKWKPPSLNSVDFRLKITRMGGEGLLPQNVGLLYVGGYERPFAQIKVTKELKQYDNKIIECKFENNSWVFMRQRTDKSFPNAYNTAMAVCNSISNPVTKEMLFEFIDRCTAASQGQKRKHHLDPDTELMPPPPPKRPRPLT

In assay [1], “human CE GTase (211–597) ΔCDS1 (R330A/K331A/R386A) (from UniProt O60942 211-597) (domain or fragment)” came in with a guanylyltransferase activity (32P-GMP bound to the GTase), 0-10 μM 4-heptad pSer5 CTD peptide, relative to basal activity of 1.4 fold.
“human capping enzyme (CE/RNGTT) GTase with the disordered flanking regions (211–597), wild-type (from UniProt O60942 211-597) (domain or fragment)” came in with a guanylyltransferase activity (32P-GMP bound to the GTase), 0-10 μM 4-heptad pSer5 CTD peptide, relative to basal WT activity in assay [1] of 2.2 fold.
With “human capping enzyme (CE/RNGTT) GTase with the disordered flanking regions (211–597), wild-type, O60942 R330A; K331A; R386A”, the ratio to parent in assay [2] was 0.2; in assay [3], 0.43.
Consider “human capping enzyme (CE/RNGTT) GTase with the disordered flanking regions (211–597), wild-type, O60942 R330A; K331A; R386A; R358A; K403A; R411A”, for which the values for the ratio to parent in assay [2] and in assay [3] were 0.035 and 0.03, respectively.
The like results for “human capping enzyme (CE/RNGTT) GTase with the disordered flanking regions (211–597), wild-type, O60942 R358A; K403A; R411A” were, in that order, 0.12 and 0.18.
With “mRNA capping enzyme GTase (from UniProt O60942)”, in assay [4], the Kd was 139 µM.

By Kd is commonly meant the concentration at which binding is half-saturated.
